Data from PMC8897273 (Journal of molecular biology, 2022).

Target: PABP1;eIF4G1 (88-653) (Homo sapiens;Homo sapiens, UniProt P11940;Q04637 1-636;88-653, |)
Test: EMSA

Sequence of PABP1;eIF4G1 (88-653) (P11940 whole entry, chain 1 of 2): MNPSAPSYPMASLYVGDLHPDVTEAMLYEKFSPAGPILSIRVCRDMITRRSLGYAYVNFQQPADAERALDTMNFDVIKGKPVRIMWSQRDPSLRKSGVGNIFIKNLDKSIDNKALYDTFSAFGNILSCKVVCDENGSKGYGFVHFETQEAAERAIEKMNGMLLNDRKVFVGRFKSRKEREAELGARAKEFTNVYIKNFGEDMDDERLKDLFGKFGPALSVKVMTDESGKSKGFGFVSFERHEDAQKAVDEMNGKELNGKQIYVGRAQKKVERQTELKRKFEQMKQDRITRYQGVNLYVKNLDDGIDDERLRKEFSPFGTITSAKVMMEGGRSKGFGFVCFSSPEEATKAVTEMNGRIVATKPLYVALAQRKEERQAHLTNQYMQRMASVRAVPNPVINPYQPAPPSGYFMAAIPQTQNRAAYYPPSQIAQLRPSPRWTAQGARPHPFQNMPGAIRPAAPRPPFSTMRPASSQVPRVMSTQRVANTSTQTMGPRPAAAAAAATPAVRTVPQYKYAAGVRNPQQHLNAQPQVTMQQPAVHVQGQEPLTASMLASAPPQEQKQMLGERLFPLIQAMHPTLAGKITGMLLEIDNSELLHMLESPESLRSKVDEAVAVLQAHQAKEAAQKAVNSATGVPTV
Sequence of PABP1;eIF4G1 (88-653) (Q04637 88-653, chain 2 of 2): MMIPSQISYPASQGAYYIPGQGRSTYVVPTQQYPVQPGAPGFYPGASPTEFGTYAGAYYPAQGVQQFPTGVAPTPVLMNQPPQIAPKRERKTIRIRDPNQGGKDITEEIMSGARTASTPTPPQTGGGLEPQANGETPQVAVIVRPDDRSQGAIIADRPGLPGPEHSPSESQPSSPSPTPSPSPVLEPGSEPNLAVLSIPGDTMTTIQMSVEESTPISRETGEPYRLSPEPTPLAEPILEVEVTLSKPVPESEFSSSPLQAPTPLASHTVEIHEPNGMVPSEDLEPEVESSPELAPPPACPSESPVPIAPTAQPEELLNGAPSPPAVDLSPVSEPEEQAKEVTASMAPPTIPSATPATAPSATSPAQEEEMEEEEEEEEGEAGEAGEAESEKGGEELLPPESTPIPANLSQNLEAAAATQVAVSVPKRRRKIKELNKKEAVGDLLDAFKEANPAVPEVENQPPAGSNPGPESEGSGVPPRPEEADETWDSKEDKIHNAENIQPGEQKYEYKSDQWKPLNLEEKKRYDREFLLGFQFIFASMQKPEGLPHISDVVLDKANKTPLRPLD

Binder: AAAAAAAAAAAAAAAAAA (ssRNA) [Poly(A)18]
- binding result: binds
